Source: US20150301040A1

Tests used:
[1] = biological target: human IGF1R-luciferase fusion protein (IGF1R-Luc) (human); assay: bridge assay: immobilized IGF1R-PGA14tag, antibody at 195 ng/ml, IGF1R-Luc
[2] = biological target: human IGF1R-luciferase fusion protein (IGF1R-Luc) (human); assay: bridge assay: immobilized IGF1R-PGA14tag, antibody at 0.8 ng/ml, IGF1R-Luc
[3] = biological target: human IGF1R-luciferase fusion protein (IGF1R-Luc) (human); assay: bridge assay: immobilized IGF1R-PGA14tag, antibody, IGF1R-Luc
[4] = biological target: human IGF1R-luciferase fusion protein (IGF1R-Luc) (human); assay: bridge assay: immobilized IGF1R-PGA14tag, antibody at 3 ng/ml, IGF1R-Luc
[5] = biological target: human IGF1R-luciferase fusion protein (IGF1R-Luc) (human); assay: bridge assay: immobilized IGF1R-PGA14tag, antibody at 0.05 ng/ml, IGF1R-Luc
[6] = biological target: human IGF1R-luciferase fusion protein (IGF1R-Luc) (human); assay: bridge assay: immobilized IGF1R-PGA14tag, antibody at 49 ng/ml, IGF1R-Luc
[7] = biological target: human IGF1R-luciferase fusion protein (IGF1R-Luc) (human); assay: bridge assay: immobilized IGF1R-PGA14tag, antibody at 50000 ng/ml, IGF1R-Luc
[8] = biological target: human IGF1R-luciferase fusion protein (IGF1R-Luc) (human); assay: bridge assay: immobilized IGF1R-PGA14tag, antibody at 781 ng/ml, IGF1R-Luc
[9] = biological target: human IGF1R-luciferase fusion protein (IGF1R-Luc) (human); assay: bridge assay: immobilized IGF1R-PGA14tag, antibody at 12 ng/ml, IGF1R-Luc
[10] = biological target: human IGF1R-luciferase fusion protein (IGF1R-Luc) (human); assay: bridge assay: immobilized IGF1R-PGA14tag, antibody at 3125 ng/ml, IGF1R-Luc
[11] = biological target: human IGF1R-luciferase fusion protein (IGF1R-Luc) (human); assay: bridge assay: immobilized IGF1R-PGA14tag, antibody at 0.2 ng/ml, IGF1R-Luc
[12] = biological target: human IGF1R-luciferase fusion protein (IGF1R-Luc) (human); assay: bridge assay: immobilized IGF1R-PGA14tag, antibody at 12500 ng/ml, IGF1R-Luc

Sequence of human IGF1R-luciferase fusion protein (IGF1R-Luc) (human) (chain, as listed by the source limits assumed): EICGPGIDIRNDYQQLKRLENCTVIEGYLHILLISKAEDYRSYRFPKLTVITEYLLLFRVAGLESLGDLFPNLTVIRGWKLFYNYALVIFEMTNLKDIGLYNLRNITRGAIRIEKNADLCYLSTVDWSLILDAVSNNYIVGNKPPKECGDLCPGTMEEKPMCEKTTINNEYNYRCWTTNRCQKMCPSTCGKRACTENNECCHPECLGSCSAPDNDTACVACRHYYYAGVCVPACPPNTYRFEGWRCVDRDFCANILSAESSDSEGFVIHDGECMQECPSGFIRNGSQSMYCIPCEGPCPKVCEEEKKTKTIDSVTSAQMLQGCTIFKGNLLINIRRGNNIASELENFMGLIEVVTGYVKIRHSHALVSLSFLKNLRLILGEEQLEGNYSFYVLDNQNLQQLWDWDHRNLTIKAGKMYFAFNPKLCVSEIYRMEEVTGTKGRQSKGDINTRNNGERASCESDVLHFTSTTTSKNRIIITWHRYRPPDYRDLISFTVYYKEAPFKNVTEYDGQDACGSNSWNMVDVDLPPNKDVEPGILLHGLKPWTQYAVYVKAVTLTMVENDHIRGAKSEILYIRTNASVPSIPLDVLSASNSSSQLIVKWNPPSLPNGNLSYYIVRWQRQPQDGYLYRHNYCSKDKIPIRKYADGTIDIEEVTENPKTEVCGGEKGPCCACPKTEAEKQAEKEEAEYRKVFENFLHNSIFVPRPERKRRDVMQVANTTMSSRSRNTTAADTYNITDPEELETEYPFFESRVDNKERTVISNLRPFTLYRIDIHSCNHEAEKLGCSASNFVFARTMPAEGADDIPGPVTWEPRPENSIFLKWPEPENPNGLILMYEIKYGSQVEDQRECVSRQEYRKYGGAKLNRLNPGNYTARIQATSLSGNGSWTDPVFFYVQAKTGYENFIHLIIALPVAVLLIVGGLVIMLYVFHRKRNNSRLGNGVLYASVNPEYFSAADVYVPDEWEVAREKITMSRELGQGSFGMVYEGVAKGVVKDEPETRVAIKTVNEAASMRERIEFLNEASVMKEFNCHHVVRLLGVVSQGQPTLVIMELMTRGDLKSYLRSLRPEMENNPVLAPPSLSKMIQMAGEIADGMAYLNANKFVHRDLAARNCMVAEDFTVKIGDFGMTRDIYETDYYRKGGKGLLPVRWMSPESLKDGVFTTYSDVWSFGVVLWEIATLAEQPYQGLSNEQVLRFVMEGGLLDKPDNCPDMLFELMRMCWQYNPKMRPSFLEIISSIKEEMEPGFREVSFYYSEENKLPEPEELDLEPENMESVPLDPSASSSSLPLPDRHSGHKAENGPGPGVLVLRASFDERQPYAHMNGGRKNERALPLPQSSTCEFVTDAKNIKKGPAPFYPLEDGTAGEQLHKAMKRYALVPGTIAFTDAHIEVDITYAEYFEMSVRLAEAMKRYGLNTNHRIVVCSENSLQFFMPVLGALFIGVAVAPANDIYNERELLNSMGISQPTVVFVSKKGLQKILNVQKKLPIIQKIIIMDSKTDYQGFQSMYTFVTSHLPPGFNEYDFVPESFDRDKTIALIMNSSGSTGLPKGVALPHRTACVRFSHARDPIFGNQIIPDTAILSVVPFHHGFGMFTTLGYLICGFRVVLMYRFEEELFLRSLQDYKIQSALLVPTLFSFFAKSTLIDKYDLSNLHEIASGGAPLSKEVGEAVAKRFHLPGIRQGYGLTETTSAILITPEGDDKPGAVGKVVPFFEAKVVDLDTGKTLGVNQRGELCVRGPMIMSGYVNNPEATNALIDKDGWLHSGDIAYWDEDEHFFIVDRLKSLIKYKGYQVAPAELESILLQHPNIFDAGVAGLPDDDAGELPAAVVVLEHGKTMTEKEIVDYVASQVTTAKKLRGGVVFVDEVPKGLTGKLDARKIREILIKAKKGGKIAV

RLU bound [1]: 235000 RLU
RLU bound [2]: 8860 RLU
detection limit [3]: 0.2 ng/mL
RLU bound [4]: 11800 RLU
RLU bound [5]: 5370 RLU
RLU bound [6]: 88900 RLU
RLU bound [7]: 805000 RLU
RLU bound [8]: 476000 RLU
RLU bound [9]: 27000 RLU
RLU bound [10]: 627000 RLU
RLU bound [11]: 5900 RLU
RLU bound [12]: 767000 RLU
Substance: Monoclonal antibody to the extracellular domain of IGF1R (anti-IGF1R clone#24-75, Millipore, USA)
